Literature values as cited in publication PMC6628625.
Where two headings read alike, the source gives them in different places.

Columns and labels:
[1] = biological target: calmodulin (Homo sapiens) (UniProt P0DP23)
[2] = biological target: calmodulin (Homo sapiens) (UniProt P0DP23); remark: listed apart in the source

| Substance | Kd [1] [nM] | Kd [2] [nM] |
| --- | --- | --- |
| AC (adenylate cyclase toxin) (from UniProt P0DKX7) | 0.2 |  |
| EF (edema factor) (from UniProt P40136) |  | 20 |
